Measured values reported in patent US20190153097A1 (AGENCY FOR SCIENCE TECHNOLOGY AND RESEARCH, published 2019).

Molecular target: T1, human CTLA-4 (human, UniProt P16410 36-161, limits assumed)
T1 construct: Soluble protein, construct not described; also called huCTLA-4; CD152
Experiment: blocking ELISA: CD80 coated, antibody pre-incubated with human CTLA-4, binding of CTLA-4 to CD80 detected

T1 sequence (P16410 36-161 limits assumed): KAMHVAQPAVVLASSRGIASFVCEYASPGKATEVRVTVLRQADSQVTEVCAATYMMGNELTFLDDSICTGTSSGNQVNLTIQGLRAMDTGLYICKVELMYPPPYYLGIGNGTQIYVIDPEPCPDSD

B1: L3D10 (commercial mouse anti-human CTLA-4 IgG1) (antibody, V domains shown)
VH: QVQLKESGPGLVAPSQSLSITCTVSGFSLTSYGLSWVRQPPGKGLEWLGVIWYDGNTNFHSALISRLTISKDNSKSQVFLELNSLQTDDTATYYCAKTEGHYYGSNYGYYALDYWGQGTSVTVSS
VL: DIQMTQSPASLSVSVGETVTITCRASENIYSNLAWYQQKQGKSPQLLVYAATNLADGVPSRFSGSGSGTQYSLKINSLQSEDFGTYFCQHLWGTPYTFGGGTKLEIK
B1 was tested, and the “IC50 (read off the curve)” value was roughly 2 nM.
